Results on four molecules are retold here after US20230174642A1, “AFFINITY-MATURATED ANTI-ASIC1a ANTIBODIES” (SHANGHAITECH UNIVERSITY, priority 2019, published 2023).

What is called Kd is the free concentration of one partner at which half of the binding sites on the other are occupied at equilibrium, for simple one-to-one binding. In general, koff refers to the first-order rate constant of dissociation. Broadly, the kon is the second-order rate constant of association.

Assay [1] concerns the target T1, hASIC1a-mCherry fusion on a stable cell line (human, UniProt P78348 1-528).
T1 sequence (looked up): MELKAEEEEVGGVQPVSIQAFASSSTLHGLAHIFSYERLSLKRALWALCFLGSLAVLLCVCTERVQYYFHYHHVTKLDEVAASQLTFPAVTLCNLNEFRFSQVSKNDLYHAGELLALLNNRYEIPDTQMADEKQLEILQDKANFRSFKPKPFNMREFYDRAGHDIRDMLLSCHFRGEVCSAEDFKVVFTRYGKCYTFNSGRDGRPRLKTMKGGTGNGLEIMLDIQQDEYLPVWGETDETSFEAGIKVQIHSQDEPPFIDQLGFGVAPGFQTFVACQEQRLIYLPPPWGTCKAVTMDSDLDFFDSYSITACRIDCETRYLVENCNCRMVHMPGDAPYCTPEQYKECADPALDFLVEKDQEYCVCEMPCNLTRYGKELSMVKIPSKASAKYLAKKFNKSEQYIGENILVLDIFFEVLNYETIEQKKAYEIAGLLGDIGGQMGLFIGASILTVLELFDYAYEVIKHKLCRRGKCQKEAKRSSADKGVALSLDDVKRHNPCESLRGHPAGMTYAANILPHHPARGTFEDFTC
Nature of the assay: cell-based or functional assay.

Assay [2] deals with T2, rat ASIC1a-eYFP (rASIC1a-eYFP) on transiently transfected CHO-K1 cells (rat, UniProt P55926 1-526).
T2 construct: whole, on cells; not shown: eYFP fusion partner
T2 sequence (looked up): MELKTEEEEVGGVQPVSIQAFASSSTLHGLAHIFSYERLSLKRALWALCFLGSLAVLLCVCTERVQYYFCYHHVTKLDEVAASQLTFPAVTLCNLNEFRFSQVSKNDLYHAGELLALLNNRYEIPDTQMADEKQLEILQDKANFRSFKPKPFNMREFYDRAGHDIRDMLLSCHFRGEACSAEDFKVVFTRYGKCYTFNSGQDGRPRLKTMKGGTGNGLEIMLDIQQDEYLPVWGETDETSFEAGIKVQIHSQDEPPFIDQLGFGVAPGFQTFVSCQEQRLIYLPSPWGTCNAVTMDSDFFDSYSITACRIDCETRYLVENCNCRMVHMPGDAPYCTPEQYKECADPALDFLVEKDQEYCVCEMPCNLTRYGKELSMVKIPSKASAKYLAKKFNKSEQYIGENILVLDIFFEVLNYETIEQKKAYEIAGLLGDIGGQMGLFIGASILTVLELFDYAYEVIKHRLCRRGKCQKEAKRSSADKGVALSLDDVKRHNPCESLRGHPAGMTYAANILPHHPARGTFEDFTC
Nature of the assay: FACS on transiently transfected CHO-K1 cells. Here is the method: (§1) To investigate the species selectivity of ASC06-IgG1 affinity-matured antibodies, plasmids encoding fusion proteins of eYFP with […] homologs of ASIC1a were constructed. These plasmids included those encoding human ASIC1a (hASIC1a-eYFP), mouse ASIC1a (mASIC1a-eYFP), and rat ASIC1a (rASIC1a-eYFP). CHO-K1 cells were transiently transfected with the ASIC1a-eYFP plasmids, and a fluorescence activated cell sorting (FACS)-based binding assay was carried out to determine binding to the homologs or isoforms of ASIC1a expressed on the cell surface. An isotype control was used as a negative control for binding (NC). ASC06-IgG1 was used as a positive control. Summarily, the CHO-K1 cells expressing the ASIC1a-eYFP (green) homologs were stained with the indicated antibody (red) and subjected to FACS.
To examine the ASIC isotype selectivity of ASC06-IgG1 affinity-matured antibodies, plasmids encoding fusion proteins of eYFP with isoforms of […] were constructed. These plasmids included those encoding human ASIC1b (hASIC1b-eYFP), human ASIC2a (hASIC2a-eYFP), and human ASIC3a (hASIC3a-eYFP). CHO-K1 cells were transiently transfected with these plasmids and used in a FACS-based binding assay disclosed herein. Binding of ASC06-IgG1 to CHO-K1 cells expressing human ASIC1a-eYFP (hASIC1a-eYFP) was used as a positive control (data not shown and FIG. 2), and an isotype control was used as a negative control for binding (NC).

Assay [3] deals with T3, recombinant extracellular domain of hASIC1a (hASIC1a-ECD) (human, UniProt P78348 67-427, limits assumed).
T3 construct: extracellular domain; ASIC1a is one splice isoform of it; also called trimeric ectodomain of hASIC1a
T3 sequence (looked up): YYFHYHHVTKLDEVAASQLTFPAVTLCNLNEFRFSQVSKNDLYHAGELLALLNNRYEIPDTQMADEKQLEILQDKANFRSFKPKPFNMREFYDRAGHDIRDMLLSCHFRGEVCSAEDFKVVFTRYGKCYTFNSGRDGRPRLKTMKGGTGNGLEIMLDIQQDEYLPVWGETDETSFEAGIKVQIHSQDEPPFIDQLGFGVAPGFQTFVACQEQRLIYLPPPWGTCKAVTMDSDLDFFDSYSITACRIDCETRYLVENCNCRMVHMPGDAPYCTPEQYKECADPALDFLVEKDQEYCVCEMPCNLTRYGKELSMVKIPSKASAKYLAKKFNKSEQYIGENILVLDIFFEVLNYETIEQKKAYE
Nature of the assay: SPR, Biacore T200, hASIC1a-ECD immobilized, IgG1 as analyte. Here is the method: Binding affinities of four affinity-matured antibodies in IgG1 format (ASC06-01-IgG1 through ASC06-04-IgG1) to the recombinant extracellular domain of hASIC1a(hASIC1a-ECD) were measured using the Biacore T200™ (GE Healthcare). The ASC06-IgG1 antibody was used as a positive control. All manipulations were followed by the user guide of manufacturer. Briefly, was hASIC1a was immobilized, and serial dilutions of the indicated antibodies were added as analytes. The analysis of the results were processed in BIA Evaluation Software™.

In assay [4] the target is T4, human ASIC1a (hASIC1a-eYFP) (Homo sapiens, UniProt P78348).
T4 construct: expressed in transfected cells; host or cells: CHO-K1 (transient)
T4 sequence (P78348 1-528): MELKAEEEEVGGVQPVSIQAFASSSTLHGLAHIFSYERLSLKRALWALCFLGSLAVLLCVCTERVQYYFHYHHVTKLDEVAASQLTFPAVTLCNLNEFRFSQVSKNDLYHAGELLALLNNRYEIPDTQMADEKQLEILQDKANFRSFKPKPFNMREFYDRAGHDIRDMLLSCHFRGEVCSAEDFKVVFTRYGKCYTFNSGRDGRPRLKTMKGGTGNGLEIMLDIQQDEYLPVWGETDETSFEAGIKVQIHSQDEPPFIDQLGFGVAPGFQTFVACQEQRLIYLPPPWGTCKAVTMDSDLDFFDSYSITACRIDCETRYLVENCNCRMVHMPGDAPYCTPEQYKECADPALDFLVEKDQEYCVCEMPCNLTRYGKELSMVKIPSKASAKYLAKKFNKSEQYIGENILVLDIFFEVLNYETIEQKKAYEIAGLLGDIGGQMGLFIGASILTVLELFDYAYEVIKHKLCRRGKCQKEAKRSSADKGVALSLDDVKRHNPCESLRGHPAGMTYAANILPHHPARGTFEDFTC
The assay can be described thus: FACS-based binding assay, transiently transfected CHO-K1 cells (species selectivity). The following applies: double positive population. As to the method:
as §1

Assay [5] concerns the target T5, rat ASIC1a (rASIC1a-eYFP) (Rattus norvegicus, UniProt P55926).
T5 construct: expressed in transfected cells; host or cells: CHO-K1 (transient)
T5 sequence (P55926 1-526): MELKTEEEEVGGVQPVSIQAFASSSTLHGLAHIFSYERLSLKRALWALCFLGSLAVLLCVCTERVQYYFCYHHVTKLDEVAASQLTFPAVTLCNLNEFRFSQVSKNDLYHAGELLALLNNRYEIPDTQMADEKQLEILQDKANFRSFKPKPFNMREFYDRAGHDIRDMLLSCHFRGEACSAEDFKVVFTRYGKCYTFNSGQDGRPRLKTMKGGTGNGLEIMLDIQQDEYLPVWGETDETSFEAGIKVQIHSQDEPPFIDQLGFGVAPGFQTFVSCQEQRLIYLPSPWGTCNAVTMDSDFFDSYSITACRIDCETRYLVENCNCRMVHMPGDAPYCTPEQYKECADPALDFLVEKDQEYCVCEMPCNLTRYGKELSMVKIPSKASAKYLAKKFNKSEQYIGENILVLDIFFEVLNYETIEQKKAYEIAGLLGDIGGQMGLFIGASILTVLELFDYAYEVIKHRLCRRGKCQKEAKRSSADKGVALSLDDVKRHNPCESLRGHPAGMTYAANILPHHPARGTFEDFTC
The description is as above. The following applies: double positive population. As to the method:
as §1

B1: ASC06-03-IgG1 (antibody, V domains shown)
VH: QVQLQQSGGGLVQPGGSLRLSCAASGFTFSSYAMSWVRQAPGKGLEWVSAISGSGGSTYYADSVKGRFTISRDNSKNTLYLQMNSLRAEDTAVYYCAKDSFYGRAKGSWGQGTLVTVSS
VL: QSALTQPASVSGSPGQSITISCTGTSSDVGAYNYVSWYQQQPGKAPKLMIYGVSNRPSGVSNRFSGSKSGNAASLTISGLQAEDEADYYCSSYTSSSTYVFGTGTKLTVLG
notes: Full length IgG1
In the case of B1, the “IC50 for the inhibition of acid induced ASIC1a-mediated calcium influx, FLIPR-based assay” value in assay [1] came to 2.61 nM. Besides, the binding result in assay [2] is given as “binds”. Also, in assay [3], the Kd is 0.12 nM, the koff was 8.2e-05 s⁻¹ and the kon worked out at 680000 M⁻¹ s⁻¹.

B2: ASC06-01-IgG1: affinity-matured ASC06 derivative, VH-CDR3 DSYFGYSKGD (SEQ ID NO: 11) (antibody, V domains shown)
VH: QVQLQQSGGGLVQPGGSLRLSCAASGFTFSSYAMSWVRQAPGKGLEWVSAISGSGGSTYYADSVKGRFTISRDNSKNTLYLQMNSLRAEDTAVYYCAKDSYFGYSKGDWGQGTLVTVSS
VL: QSALTQPASVSGSPGQSITISCTGTSSDVGAYNYVSWYQQQPGKAPKLMIYGVSNRPSGVSNRFSGSKSGNAASLTISGLQAEDEADYYCSSYTSSSTYVFGTGTKLTVLG
For the molecule B2, in assay [4], the “binding to cells expressing hASIC1a-eYFP” value is given as “bound”. For the same molecule, the “binding to cells expressing rASIC1a-eYFP” value in assay [5] was “bound”.

B3: ASC06-IgG1: parental (WT) ASIC1a-specific antagonist antibody; VL SEQ ID NO: 2, VH SEQ ID NO: 7, VH-CDR3 DSFYGYSKGD (antibody, V domains shown)
VH: QVQLQQSGGGLVQPGGSLRLSCAASGFTFSSYAMSWVRQAPGKGLEWVSAISGSGGSTYYADSVKGRFTISRDNSKNTLYLQMNSLRAEDTAVYYCAKDSFYGYSKGDWGQGTLVTVSS
VL: QSALTQPASVSGSPGQSITISCTGTSSDVGAYNYVSWYQQQPGKAPKLMIYGVSNRPSGVSNRFSGSKSGNAASLTISGLQAEDEADYYCSSYTSSSTYVFGTGTKLTVLG
modifications: IgG1 constant regions; Amino acid sequence VH of ASC06; Amino acid sequence VL of ASC06
B3: the “binding to cells expressing hASIC1a-eYFP” value in assay [4] is given as “bound”. Besides, in assay [5], the “binding to cells expressing rASIC1a-eYFP” value is “bound”.

B4: ASC06-02-IgG1: affinity-matured ASC06 derivative, VH-CDR3 DSFFGRAKGS (SEQ ID NO: 13) (antibody, V domains shown)
VH: QVQLQQSGGGLVQPGGSLRLSCAASGFTFSSYAMSWVRQAPGKGLEWVSAISGSGGSTYYADSVKGRFTISRDNSKNTLYLQMNSLRAEDTAVYYCAKDSFFGRAKGSWGQGTLVTVSS
VL: QSALTQPASVSGSPGQSITISCTGTSSDVGAYNYVSWYQQQPGKAPKLMIYGVSNRPSGVSNRFSGSKSGNAASLTISGLQAEDEADYYCSSYTSSSTYVFGTGTKLTVLG
For the molecule B4, the “binding to cells expressing hASIC1a-eYFP” value in assay [4] was “bound”. Besides, in assay [5], the “binding to cells expressing rASIC1a-eYFP” value is “bound”.
